# Measured values as given in the supplement of paper PMC11316812.
# ± gives the standard deviation of the averaged measurements.
# Key:
# [1] = tested on: MCF7; assay: percentage of EdU-negative (G0-arrested) nuclei per well, 72 h; higher = more G0 arrest; details: reference: sequence is the full UniProt precursor, the tested protein was the secreted form or ectodomain
# [2] = tested on: hTERT-HMEC; assay: as above; details: reference: sequence is the full UniProt precursor, the tested protein was the secreted form or ectodomain
# [3] = protein concentration 0.02588 µM
# [4] = protein concentration 0.2588 µM
# [5] = protein concentration 0.0225 µM
# [6] = protein concentration 0.0166175 µM
# [7] = protein concentration 0.166175 µM
# [8] = protein concentration 0.02823 µM
# [9] = protein concentration 0.2823 µM
# 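Note: secreted proteins added to cultured cells, EdU pulse at the end, nuclei found by Hoechst imaging, EdU status from nuclear versus surrounding ring intensity ratio, PBS as neutral control.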
sequence,measurement,setting,value
MEPPGDWGPPPWRSTPKTDVLRLVLYLTFLGAPCYAPALPSCKEDEYPVGSECCPKCSPGYRVKEACGELTGTVCEPCPPGTYIAHLNGLSKCLQCQMCDPAMGLRASRNCSRTENAVCGCSPGHFCIVQDGDHCAACRAYATSSPGQRVQKGGTESQDTLCQNCPPGTFSPNGTLEECQHQTKCSWLVTKAGAGTSSSHWVWWFLSGSLVIVIVCSTVGLIICVKRRKPRGDVVKVIVSVQRKRQEAEGEATVIEALQAPPDVTTVAVEETIPSFTGRSPNH [F6Q0M4],percentage of EdU-negative,[1]; [3],25.05 ± 0.09%
same,percentage of EdU-negative,[1]; [4],27.5 ± 1.3%
same,percentage of EdU-negative,[2]; [3],5.28 ± 1.9%
same,percentage of EdU-negative,[2]; [4],6.34 ± 0.056%
MEPQLGPEAAALRPGWLALLLWVSALSCSFSLPASSLSSLVPQVRTSYNFGRTFLGLDKCNACIGTSICKKFFKEEIRSDNWLASHLGLPPDSLLSYPANYSDDSKIWRPVEIFRLVSKYQNEISDRRICASASAPKTCSIERVLRKTERFQKWLQAKRLTPDLVQGLASPLLRCPSQRLLDRVVRRYAEVADAGSIFMDHFTDRDKLRLLYTLAVNSHPILLQIFPGAEGWPLPKYLGSCGRFLVSTSTRPLQEFYDAPPDQAADLAYQLLGVLESLRSNDLNYFFYFTHIDAGMFGVFNNGHLFIRDASAVGVIDKQEGSQEANRAGENKDIFSCLVSGCQAQLPSCESISEKQSLVLVCQKLLPRLLQGRFPSPVQDDIDSILVQCGDSIRPDPEVLGAASQLKDILRPLRTCDSRFAYRYPDCKYNDKF [Q9H7Y0],percentage of EdU-negative,[1]; [5],25.8 ± 2.1%
same,percentage of EdU-negative,[1]; protein concentration 0.225 µM,25.3 ± 2%
same,percentage of EdU-negative,[2]; [5],5.59 ± 0.064%
same,percentage of EdU-negative,[2]; protein concentration 0.225 µM,5.31 ± 0.38%
MEQWDHFHNQQEDTDSCSESVKFDARSMTALLPPNPKNSPSLQEKLKSFKAALIALYLLVFAVLIPLIGIVAAQLLKWETKNCSVSSTNANDITQSLTGKGNDSEEEMRFQEVFMEHMSNMEKRIQHILDMEANLMDTEHFQNFSMTTDQRFNDILLQLSTLFSSVQGHGNAIDEISKSLISLNTTLLDLQLNIENLNGKIQENTFKQQEEISKLEERVYNVSAEIMAMKEEQVHLEQEIKGEVKVLNNITNDLRLKDWEHSQTLRNITLIQGPPGPPGEKGDRGPTGESGPRGFPGPIGPPGLKGDRGAIGFPGSRGLPGYAGRPGNSGPKGQKGEKGSGNTLTPFTKVRLVGGSGPHEGRVEILHSGQWGTICDDRWEVRVGQVVCRSLGYPGVQAVHKAAHFGQGTGPIWLNEVFCFGRESSIEECKIRQWGTRACSHSEDAGVTCTL,percentage of EdU-negative,[1]; [5],27.3 ± 1.6%
same,percentage of EdU-negative,[1]; protein concentration 0.225 µM,25.4 ± 1.7%
same,percentage of EdU-negative,[2]; [5],5.16 ± 0.032%
same,percentage of EdU-negative,[2]; protein concentration 0.225 µM,5.23 ± 1.7%
MERAAPSRRVPLPLLLLGGLALLAAGVDADVLLEACCADGHRMATHQKDCSLPYATESKECRMVQEQCCHSQLEELHCATGISLANEQDRCATPHGDNASLEATFVKRCCHCCLLGRAAQAQGQSCEYSLMVGYQCGQVFQACCVKSQETGDLDVGGLQETDKIIEVEEEQEDPYLNDRCRGGGPCKQQCRDTGDEVVCSCFVGYQLLSDGVSCEDVNECITGSHSCRLGESCINTVGSFRCQRDSSCGTGYELTEDNSCKDIDECESGIHNCLPDFICQNTLGSFRCRPKLQCKSGFIQDALGNCIDINECLSISAPCPIGHTCINTEGSYTCQKNVPNCGRGYHLNEEGTRCVDVDECAPPAEPCGKGHRCVNSPGSFRCECKTGYYFDGISRMCVDVNECQRYPGRLCGHKCENTLGSYLCSCSVGFRLSVDGRSCEDINECSSSPCSQECANVYGSYQCYCRRGYQLSDVDGVTCEDIDECALPTGGHICSYRCINIPGSFQCSCPSSGYRLAPNGRNCQDIDECVTGIHNCSINETCFNIQGGFRCLAFECPENYRRSAATLQQEKTDTVRCIKSCRPNDVTCVFDPVHTISHTVISLPTFREFTRPEEIIFLRAITPPHPASQANIIFDITEGNLRDSFDIIKRYMDGMTVGVVRQVRPIVGPFHAVLKLEMNYVVGGVVSHRNVVNVHIFVSEYWF,percentage of EdU-negative,[1]; [6],27.1 ± 0.61%
same,percentage of EdU-negative,[1]; [7],26.7 ± 1.6%
same,percentage of EdU-negative,[2]; [6],3.95 ± 0.058%
same,percentage of EdU-negative,[2]; [7],5.63 ± 0.19%
MERASCLLLLLLPLVHVSATTPEPCELDDEDFRCVCNFSEPQPDWSEAFQCVSAVEVEIHAGGLNLEPFLKRVDADADPRQYADTVKALRVRRLTVGAAQVPAQLLVGALRVLAYSRLKELTLEDLKITGTMPPLPLEATGLALSSLRLRNVSWATGRSWLAELQQWLKPGLKVLSIAQAHSPAFSCEQVRAFPALTSLDLSDNPGLGERGLMAALCPHKFPAIQNLALRNTGMETPTGVCAALAAAGVQPHSLDLSHNSLRATVNPSAPRCMWSSALNSLNLSFAGLEQVPKGLPAKLRVLDLSCNRLNRAPQPDELPEVDNLTLDGNPFLVPGTALPHEGSMNSGVVPACARSTLSVGVSGTLVLLQGARGFA,percentage of EdU-negative,[1]; [8],26.8 ± 1.2%
same,percentage of EdU-negative,[1]; [9],27.2 ± 0.7%
same,percentage of EdU-negative,[2]; [8],4.9 ± 0.54%
same,percentage of EdU-negative,[2]; [9],8.12 ± 1.2%
MERASLIQKAKLAEQAERYEDMAAFMKGAVEKGEELSCEERNLLSVAYKNVVGGQRAAWRVLSSIEQKSNEEGSEEKGPEVREYREKVETELQGVCDTVLGLLDSHLIKEAGDAESRVFYLKMKGDYYRYLAEVATGDDKKRIIDSARSAYQEAMDISKKEMPPTNPIRLGLALNFSVFHYEIANSPEEAISLAKTTFDEAMADLHTLSEDSYKDSTLIMQLLRDNLTLWTADNAGEEGGEAPQEPQS,percentage of EdU-negative,[1]; [5],25.3 ± 4.8%
same,percentage of EdU-negative,[1]; protein concentration 0.225 µM,20.9 ± 1.9%
same,percentage of EdU-negative,[2]; [5],4.93 ± 0.53%
same,percentage of EdU-negative,[2]; protein concentration 0.225 µM,5.22 ± 0.073%
